Results from the supplement of paper PMC9170038.

Columns and labels:
MS2 coat protein [1] = test: apparent KD of MS2 coat protein, switch ON state; designed switch direction (-1 OFF switch, 1 ON switch): -1; higher = weaker reporter binding; conditions: FMN input: 0 or 200 uM; Eterna round: R93 (includes R88 designs)
How it was run: (§1)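 Apparent KD was obtained for each design as the median of normalised binding-curve fits over its clusters. RNA switches transcribed on-chip from Illumina sequencing clusters were titrated with SNAP-549-labelled MS2 coat protein (twofold steps, 0.7 or 1.5 nM to 3 µM) in 100 mM Tris-HCl pH 7.5, 80 mM KCl, 4 mM MgCl2, without or with constant ligand.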

MS2 coat protein [2] = test: apparent KD of MS2 coat protein, switch OFF state (with FMN for OFF switches, without FMN for ON switches); designed switch direction (-1 OFF switch, 1 ON switch): -1; higher = weaker reporter binding; conditions: FMN input: 0 or 200 uM; Eterna round: R93 (includes R88 designs)
How it was run: as §1

Row | Sequence | apparent KD of MS2 coat protein (MS2 coat protein [1]) | apparent KD of MS2 coat protein (MS2 coat protein [2])
1 | UGUGAACAUGAGGAUCACCCAUGUGAGGAUAUACGAGCGUGAGAAAGAUAAAACGAGCGUAGAAGGCACAAGAA [JR_Exclusion1_Sub5] | 43.3 nM | 57.5 nM
2 | AAGAAGGUAGGAUAUACAUGAGGAUCACCCAUGUAAAAGAAAGAAGGGAAAGAGAAAAGUAGAAGGACCAAGAA [Rudamon] | 33.4 nM | 55.3 nM
3 | GGAAAACAUGAGGAUCACCCAUGUAAGGAUAUGCAAAAAAAAAAAAGGAUAUAGAAGGGCAGAAGGUACAAAGG [salish99-ex1-30] | 23.3 nM | 36.1 nM
4 | AAAAAACAUGAGGAUCACCCAUGUAAGGAUAUCUAAAAUAAAAGAAAAAUAAAGAAAAGGAGAAGGUACAUGAA [JL wbt mod 21] | 28.6 nM | 50.6 nM
5 | AAGAAACAUGAGGAUCACCCAUGUGAGGAUAUGGAAGAAAGAAAGAAAGAAAGAAGAACCAGAAGGCACAAAGG [Publius Rubrius Barbarus] | 144 nM | 105 nM
6 | AAAAAACAUGAGGAUCACCCAUGUGAGGAUAUCGGAAACAAAAAAAACAAAAACAAAACGAGAAGGCACAAAAA [Amethyst 32] | 72.4 nM | 26.6 nM
7 | AACAGUACAGGAUAUACAUGAGGAUCACCCAUGUGAGAAUUAAGUGGCGAACCACAAAGUAGAAGGGUACUGGA [Mat - Exclusion 3 - JL mod - D1] | 43.1 nM | 469 nM
8 | AAAAAACAUGAGGAUCACCCAUGUAAGGAUAUGUAAAAUAAAAGAAAAAUAAAGAAAAGCAGAAGGUACAAGAA [JL wbt mod 18] | 37.1 nM | 23.4 nM
9 | AAAAAACAUGAGGAUCACCCAUGUGAGGAUAUCGAAAAGAAAAGAAAAGAAAGAAGAACGAGAAGGCACAAGAA [Sneferu] | 36.6 nM | 48 nM
10 | AAAAAGCGAGGAUAUACAAAAGAGCGAAAGCUCAAAAGGAAACAUGAGGAUCACCCAUGUAGAAGGCGCAAGAA [John Whine] | 23.1 nM | 20.1 nM
11 | AAAAAGUGAGGAUAUGUCAAAAGUCACAAAAGUGACAAAAGACAGAAGGCACAUGAGGAUCACCCAUGUGGAAA [Mod of Eli - Late G + early G segment 2] | 32.1 nM | 28.6 nM
12 | AAAAAGGUAGGAUAUACGAAAAAAAAGGGUAAAAUAAAUAAACAUGAGGAUCACCCAUGUAGAAGGACCAAAAA [Mat - Exclusion 2 - Tesla mod - D38] | 23.5 nM | 161 nM
13 | CUUAAGUGAGGAUAUCAGUAGUAAAAAAAUAAAAUUACUACUGAGAAGGCACAUGAGGAUCACCCAUGUUCCAA [EX4 341: Super Stable 41] | 29.7 nM | 38.1 nM
14 | AAGACUACAGGAUAUACAUGAGGAUCACCCAUGUAACUGACAAGCAGAGUACGGAGAAGUAGAAGGGUAGUCAA [Ruby 33] | 20.3 nM | 30.1 nM
15 | AAAAAACAUGAGGAUCACCCAUGUCAGGAUAUCCGGUUCUUGAAAAUCAAGAGGCGUUGGAGAAGGGACAUUCC [Chica Displaced 14 - Jieux - Exclusion 1] | 27.9 nM | 74.4 nM
16 | AACAGUACAGGAUAUACAUGAGGAUCACCCAUGUGAAAAUAAAGUGGCGUACCACAAAGUAGAAGGGUACUGAA [Mat - Exclusion 3 - JL mod - D26] | 26.7 nM | 124 nM
17 | AAAAAGUGAGGAUAUUCGGAUAGGAAAACGAAAACCUAUCCGAAGAAGGCACAUGAGGAUCACCCAUGUGGAAA [67% Ecls-II - Early G + late G segment 2] | 22.6 nM | 27.6 nM
18 | AACAGUACAGGAUAUACAUGAGGAUCACCCAUGUGAAAAUUAAGUGGGAGACCACAAAGUAGAAGGGUACUGAA [Mat - Exclusion 3 - Eli mod - D60] | 126 nM | 62.3 nM
19 | AAAAAAAGAGGAUAUACGAACAUGUCGAAAGACGUGAAGGGACAUGAGGAUCACCCAUGUAGAAGGUUUAAAAA [Mat - Exclusion 2 - JL mod - D83] | 28.5 nM | 14.6 nM
20 | AGGGAGUAAGGAUAUGAGAAAGAAAAAGAAGGAAAAAAAGAUCAGAAGGUACAUGAGGAUCACCCAUGUAAAAA [milkweed 9] | 35.6 nM | 26 nM
21 | AGUUUGUCAGGAUAUGCGUGAAGAAUAAAACAAAUAACAACGCAGAAGGGACAUGAGGAUCACCCAUGUAAACA [May 54] | 51.3 nM | 58.1 nM
